Test results from patent publication US20180055923A1 (WASHINGTON UNIVERSITY, published 2018).

T1: human fibrinogen free from plasminogen and von Willebrand factor (Enzyme Research Laboratory) (human, UniProt P02671 20-629; P02675 31-491; P02679 27-437)
T1 construct: It was bought as purified protein and coated on plates; also called Fg; immobilized human fibrinogen
T1 sequence 1: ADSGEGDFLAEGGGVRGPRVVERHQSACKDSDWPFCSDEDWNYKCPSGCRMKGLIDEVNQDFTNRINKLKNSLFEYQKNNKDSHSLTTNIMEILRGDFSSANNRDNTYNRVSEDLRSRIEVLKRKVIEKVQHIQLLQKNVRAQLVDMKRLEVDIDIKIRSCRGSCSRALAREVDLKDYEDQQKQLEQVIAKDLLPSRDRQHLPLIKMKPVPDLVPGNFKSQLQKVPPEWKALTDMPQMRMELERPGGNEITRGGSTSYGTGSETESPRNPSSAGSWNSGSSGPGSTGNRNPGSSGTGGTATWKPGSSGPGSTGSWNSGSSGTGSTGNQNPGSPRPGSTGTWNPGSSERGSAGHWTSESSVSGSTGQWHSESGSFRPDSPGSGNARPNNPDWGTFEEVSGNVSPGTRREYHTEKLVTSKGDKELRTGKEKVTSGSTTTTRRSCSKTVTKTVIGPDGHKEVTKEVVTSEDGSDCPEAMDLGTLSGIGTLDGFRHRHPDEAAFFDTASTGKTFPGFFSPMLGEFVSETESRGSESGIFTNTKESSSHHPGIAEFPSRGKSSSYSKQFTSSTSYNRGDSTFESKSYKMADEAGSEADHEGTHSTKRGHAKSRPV
T1 sequence 2: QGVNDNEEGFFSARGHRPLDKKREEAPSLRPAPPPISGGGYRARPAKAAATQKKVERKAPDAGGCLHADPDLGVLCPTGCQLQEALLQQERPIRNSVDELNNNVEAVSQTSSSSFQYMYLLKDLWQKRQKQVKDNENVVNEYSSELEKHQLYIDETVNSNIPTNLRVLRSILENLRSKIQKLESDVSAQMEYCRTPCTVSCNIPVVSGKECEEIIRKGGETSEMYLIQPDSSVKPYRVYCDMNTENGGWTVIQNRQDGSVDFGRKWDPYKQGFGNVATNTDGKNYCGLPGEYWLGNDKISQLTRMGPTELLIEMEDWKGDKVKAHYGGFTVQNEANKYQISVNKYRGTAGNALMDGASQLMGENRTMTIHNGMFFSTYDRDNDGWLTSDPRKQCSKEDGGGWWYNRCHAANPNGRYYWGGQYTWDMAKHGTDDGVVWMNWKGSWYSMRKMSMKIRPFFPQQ
T1 sequence 3: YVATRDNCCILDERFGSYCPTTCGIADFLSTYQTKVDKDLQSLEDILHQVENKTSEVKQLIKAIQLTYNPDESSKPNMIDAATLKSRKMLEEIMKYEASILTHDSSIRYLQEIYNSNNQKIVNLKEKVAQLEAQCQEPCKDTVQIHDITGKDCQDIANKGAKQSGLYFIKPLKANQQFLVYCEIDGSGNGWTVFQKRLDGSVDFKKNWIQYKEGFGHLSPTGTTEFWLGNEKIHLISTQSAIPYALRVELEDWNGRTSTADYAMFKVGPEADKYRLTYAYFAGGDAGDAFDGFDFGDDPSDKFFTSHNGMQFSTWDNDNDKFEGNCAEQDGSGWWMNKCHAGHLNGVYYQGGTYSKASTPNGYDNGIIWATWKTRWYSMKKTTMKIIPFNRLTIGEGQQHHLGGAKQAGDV

B1: 6xHis-EbpA^CTD (C-terminal domain of EbpA, residues 594 to 1077) (other)
chain: MNGRTTQPLATAPEKVDFGVPSGKAPGVKLNVKKIWEEYDQDPTSRPDNVIYEISRKQVTDTANWQTGYIKLSKPENDTSNSWERKNVTQLSKTADESYQEVLGLPQYNNQGQAFNYQTTRELAVPGYSQEKIDDTTWKNTKQFKPLDLKVIKNSSSGEKNLVGAVFELSGKNVQTTLVDNKDGSYSLPKDVRLQKGERYTLTEVKAPAGHELGKKTTWQIEVSEQGKVSIDGQEVTTTNQVIPLEIENKFSSLPIRIRKYTMQNGKQVNLAEATFALQRKNAQGSYQTVATQKTDTTGLSYFKISEPGEYRMVEQSGPLGYDTLAGNYEFTVDKYGKIHYAGKNIEENAPEWTLTHQNNLKPFDLTVHKKADNQTPLKGAKFRLTGPDTDIELPKDGKETDTFVFENLKPGKYVLTETFTPEGYQGLKEPIELIIREDGSVTIDGEKVADVLISGEKNNQITLDVTNQAKVPLPETGGIGRLW
notes: Plasmid pSJH-541; not shown: N-terminal 6xHis tag from vector pQE-30Xa
B2: 6xHis-EbpA^NTD (N-terminal domain of EbpA, residues 115 to 577) (other)
chain: PEKITVPENTKETNKNDSAPEKTEQPTATEEVTNPFAEARMAPATLRANLALPLIAPQYTTDNSGTYPTANWQPTGNQNVLNHQGNKDGSAQWDGQTSWNGDPTNRTNSYIEYGGTGDQADYAIRKYARETTTPGLFDVYLNVRGNVQKEITPLDLVLVVDWSGSMNENNRIGEVQKGVNRFVDTLADSGITNNINMGYVGYSSDGYNNNAIQMGPFDTVKNPIKNITPSSTRGGTFTQKALRDAGDMLATPNGHKKVIVLLTDGVPTFSYKVSRVQTEADGRFYGTQFTNRQDQPGSTSYISGSYNAPDQNNINKRINSTFIATIGEAMALKQRGIEIHGLGIQLQSDPRANLSKQQVEDKMREMVSADENGDLYYESADYAPDISDYLAKKAVQISGTVVNGKVVDPIAEPFKYEPNTLSMKSVGPVQVQTLPEVSLTGATINSNEIYLGKGQEIQIHYQV
notes: not shown: N-terminal 6xHis tag from vector pQE-30Xa

Biological target: T1, human fibrinogen free from plasminogen …
Experiment: ELISA, purified protein on immobilized human fibrinogen, detected with mouse anti-EbpA^Full

Binder | binding result
B1 | no binding
B2 | binds
